Paper doi:10.1101/2021.04.11.439388 (bioRxiv, 2021)

How the values were obtained:
mouse PD-L1-Fc [1] = target: T1, mouse PD-L1-Fc (mouse, UniProt Q9EP73); test: ELISA
mouse PD-L1-Fc [2] = target: T1, mouse PD-L1-Fc; test: ELISA; remark: listed apart in the source

T1 sequence (Q9EP73 19-239): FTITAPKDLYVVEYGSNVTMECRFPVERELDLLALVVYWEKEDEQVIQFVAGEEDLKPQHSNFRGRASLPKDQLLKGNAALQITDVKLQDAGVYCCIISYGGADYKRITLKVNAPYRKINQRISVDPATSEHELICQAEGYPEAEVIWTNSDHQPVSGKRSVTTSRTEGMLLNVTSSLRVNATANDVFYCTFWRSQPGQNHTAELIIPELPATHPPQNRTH

B1: PD-L1 nanobody Nb16 (VHH linked to an Fc fragment) (VHH)
VHH: QVQLQESGGGSVQAGGSLRLSCAASGYTDRNYWMGWFRQAPGKEREGVAALYTRTGSTYYADSVKGRFTISHDNAKNTLYLQMNSLKPEDTAVYYCAADSNAYGLAPLHHYWGQGTQVTVSS
- EC50 (mouse PD-L1-Fc [1]): 0.516 nM
- IC50 (mouse PD-L1-Fc [2]): 6.78 nM
